The target of data set [1] is T1, Carboxypeptidase R (CPR) (human, UniProt Q96IY4 115-423).
T1 sequence (looked up): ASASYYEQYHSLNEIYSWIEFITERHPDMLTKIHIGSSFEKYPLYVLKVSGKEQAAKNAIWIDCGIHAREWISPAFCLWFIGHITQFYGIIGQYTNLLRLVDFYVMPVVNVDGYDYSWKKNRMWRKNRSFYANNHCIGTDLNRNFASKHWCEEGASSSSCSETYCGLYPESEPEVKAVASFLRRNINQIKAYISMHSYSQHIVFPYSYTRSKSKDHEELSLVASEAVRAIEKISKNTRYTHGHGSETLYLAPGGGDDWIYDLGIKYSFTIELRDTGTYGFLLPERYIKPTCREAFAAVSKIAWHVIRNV
The data set is described as follows: cell-based or functional assay.

For data set [2], the target named is T1, Carboxypeptidase R (CPR). In words: enzyme kinetics, Ki against that of PCI. As to the method: (§1) The reduced inhibitory activity of this PCI-derived peptide may be attributed to the absence of two of the three disulfide bridges founds in wild type PCI, effectively resulting in increased mobility of all residues.
(§2) The activity of the CPR inhibitors was determined against purified CPR using hippuryl-L-arginine as the substrate. The peptides PCI-2K-R, CPI-2KR, PCI (500, 250/125/62.5, 50 mg/ml, respectively) or Tris-HCl buffer (50 mM; pH 7.5) were added to active CPR (40-320 mg/ml) at a 1:7 ratio. After thorough mixing, […] was incubated with various concentrations of hippuryl-L-arginine (1.2-6.0 mM), for 15 minutes at 37° C. The reaction was stopped with the addition of sodium phosphate buffer ([…]; 0.25 M), immediately followed by 3% cyanuric chloride in 1,4-dioxane ([…]). After mixing well, the generation of hippuric acid was determined by measuring the OD at 405 nm on a SpectraMAX 250 Microplate Spectrophotometer (Molecular Device Corporation, Sunnyvale, Calif., USA). Hippuric acid (0-2.0 mM) in Tris buffer was used as the standard.
(§3) A kinetics analysis of the CPR-catalysed hydrolysis of hippuryl-L-arginine in the absence and presence of inhibitory molecules was performed. The Lineweaver-Burk reciprocal plot, based on rearrangement of the Henri-Michaelis-Menten equation into a linear form, was applied: […]

Data set [3] has as its target T1, Carboxypeptidase R (CPR). The data set is described as follows: enzyme kinetics, Ki against that of PCI-2K-R. As to the method: (§4) In order to gain insight into the inhibitory mechanism of CPI-2KR against CPR, a classical Henri-Michaelis-Menten kinetics analysis was performed. Since the Lineweaver-Burke plot (FIG. 3C) is prone to error, particularly at low concentrations of inhibitor and substrate, the Dixon plot (1/v versus [I]) was employed to evaluate the inhibitory mechanism of CPI-2KR (FIG. 3D). Replotting of the slopes of the Dixon plot against 1/[S] confirmed that CPR-2KR is a competitive inhibitor of CPR given that the line went through the origin (FIG. 3D insert). The Km Kmₐₚₚ and Vmax were determined from the data obtained for no inhibitor and the highest inhibitor concentration (253 nM) from the Lineweaver-Burke plots (FIG. 3E) . These values were in turn used to calculate the dissociation constant of CPI-2KR (Ki).
(§5) The activity of the CPR inhibitors was determined against purified CPR using hippuryl-L-arginine as the substrate. The peptides PCI-2K-R, CPI-2KR, PCI (500, 250/125/62.5, 50 mg/ml, respectively) or Tris-HCl buffer (50 mM; pH 7.5) were added to active CPR (40-320 mg/ml) at a 1:7 ratio. […] After mixing well, the generation of hippuric acid was determined by measuring the OD at 405 nm on a SpectraMAX 250 Microplate Spectrophotometer (Molecular Device Corporation, Sunnyvale, Calif., USA). […]

Data set [4] has as its target T1, Carboxypeptidase R (CPR). In words: enzyme kinetics, CPR hydrolysis of hippuryl-L-arginine, Lineweaver-Burke at 253 nM inhibitor. On the procedure:
as §4, §5

In data set [5] the target is T1, Carboxypeptidase R (CPR). In words: enzyme kinetics, CPR hydrolysis of hippuryl-L-arginine, competitive inhibition. On the procedure:
as §1, §2, §3

Data set [6] deals with T2, CPI-2KR (linear 9-mer peptide Cys-Lys-Pro-Ala-Lys-Asn-Ala-Arg-Cys).
T2 chain: CKPAKNARC

Bridge positions count the residues as written; N and C are the ends. Ends that are not written are not given here. I, II: the chains in the order shown.

B1: CPI-2KR (linear 9-mer peptide Cys-Lys-Pro-Ala-Lys-Asn-Ala-Arg-Cys) (peptide)
peptide: CKPAKNARC-NH2
modifications: cysteine pairing not given here
notes: Linear form, no disulfide between the terminal Cys residues
By Ki is commonly meant a dissociation constant, usually derived from enzyme kinetics or from competition with a known ligand. A higher Ki goes with lower affinity. Consider B1, for which, in the data set with Carboxypeptidase R (CPR) [1], the “effective inhibitory concentration relative to PCI (fold)” value was 10 fold and the “effective inhibitory concentration, TM-induced retardation of t-PA-induced fibrinolysis” value was 126 nM. Moreover, in the data set with Carboxypeptidase R (CPR) [2], the “fold higher Ki than that of PCI” value was found to be 6 fold. Further, in the data set with Carboxypeptidase R (CPR) [3], the “fold stronger binding affinity than PCI-2K-R” value was around 46 fold. Also, in the data set with Carboxypeptidase R (CPR) [4], the inhibition constant Ki is 8.8 nM.

B2: PCI-2K-R (heterodimer of PCI-2K and PCI-R joined by a disulfide bond) (peptide)
chain 1: NKPCKTHDD-NH2
chain 2: QACWNSART-NH2
modifications: disulfide I:4-II:3; N-terminus assumed
SMILES: C[C@H](NC(=O)[C@H](CO)NC(=O)[C@H](CC(N)=O)NC(=O)[C@H](Cc1c[nH]c2ccccc12)NC(=O)[C@H](CSSC[C@H](NC(=O)[C@@H]1CCCN1C(=O)[C@H](CCCCN)NC(=O)[C@@H](N)CC(N)=O)C(=O)N[C@@H](CCCCN)C(=O)N[C@H](C(=O)N[C@@H](Cc1c[nH]cn1)C(=O)N[C@@H](CC(=O)O)C(=O)N[C@@H](CC(=O)O)C(N)=O)[C@@H](C)O)NC(=O)[C@H](C)NC(=O)[C@@H](N)CCC(N)=O)C(=O)N[C@@H](CCCNC(=N)N)C(=O)N[C@H](C(N)=O)[C@@H](C)O
notes: also called CPI-2K-R (label in claim 5)
Regarding B2, in the data set with Carboxypeptidase R (CPR) [2], the “fold lower inhibitory activity compared to PCI” value is 290 fold. The inhibition constant (Ki) with Carboxypeptidase R (CPR) [5] came out at 407 nM.

B3: Carboxypeptidase N (CPN) (protein)
chain 1: CPMGCDCFVQEVFCSDEELATVPLDIPPYTKNIIFVETSFTTLETRAFGSNPNLTKVVFLNTQLCQFRPDAFGGLPRLEDLEVTGSSFLNLSTNIFSNLTSLGKLTLNFNMLEALPEGLFQHLAALESLHLQGNQLQALPRRLFQPLTHLKTLNLAQNLLAQLPEELFHPLTSLQTLKLSNNALSGLPQGVFGKLGSLQELFLDSNNISELPPQVFSQLFCLERLWLQRNAITHLPLSIFASLGNLTFLSLQWNMLRVLPAGLFAHTPCLVGLSLTHNQLETVAEGTFAHLSNLRSLMLSYNAITHLPAGIFRDLEELVKLYLGSNNLTALHPALFQNLSKLELLSLSKNQLTTLPEGIFDTNYNLFNLALHGNPWQCDCHLAYLFNWLQQYTDRLLNIQTYCAGPAYLKGQVVPALNEKQLVCPVTRDHLGFQVTWPDESKAGGSWDLAVQERAARSQCTYSNPEGTVVLACDQAQCRWLNVQLSPQQGSLGLQYNASQEWDLRSSCGSLRLTVSIEARAAGP
chain 2: VTFRHHRYDDLVRTLYKVQNECPGITRVYSIGRSVEGRHLYVLEFSDHPGIHEPLEPEVKYVGNMHGNEALGRELMLQLSEFLCEEFRNRNQRIVQLIQDTRIHILPSMNPDGYEVAAAQGPNKPGYLVGRNNANGVDLNRNFPDLNTYIYYNEKYGGPNHHLPLPDNWKSQVEPETRAVIRWMHSFNFVLSANLHGGAVVANYPYDKSFEHRVRGVRRTASTPTPDDKLFQKLAKVYSYAHGWMFQGWNCGDYFPDGITNGASWYSLSKGMQDFNYLHTNCFEITLELSCDKFPPEEELQREWLGNREALIQFLEQVHQGIKGMVLDENYNNLANAVISVSGINHDVTSGDHGDYFRLLLPGIYTVSATAPGYDPETVTVTVGPAEPTLVNFHLKRSIPQVSPVRRAPSRRHGVRAKVQPQARKKEMEMRQLQRGPA
Consider B3, for which the “CPN-catalysed hydrolysis of hippuryl-L-arginine” value in data set [6] is “CPI-2KR did not exhibit any inhibitory activity against CPN at 506 nM”.

On to QQHADPICNKPCKTHDDCSGAWFCQACWNSARTCGPYVG (other, UniProt P01075 1-39, looked up, disulfide 12-27, 18-34, 8-24, mature) [potato carboxypeptidase inhibitor (PCI)], for which, in the data set with Carboxypeptidase R (CPR) [1], the “reversal of TM-induced suppression of t-PA-induced fibrinolysis in human plasma” value came to 12 nM. In the data set with Carboxypeptidase R (CPR) [5], this molecule registered a Ki of 1.4 nM.

B4: Carboxypeptidase R (CPR) (protein)
chain: T1 sequence (looked up)
As for B4, in data set [6], the “Dixon plot and slope replot, CPR-catalysed hydrolysis of hippuryl-L-arginine” value is “confirmed that CPR-2KR is a competitive inhibitor of CPR”.

The record behind these values is US20050130898A1 (HIDECHIKA OKADA, published 2005).
